Source: patent US20180094062A1 (Hoffmann-La Roche, published 2018)

T1: TtSlyDcas
T1 construct: negative control scaffold without the HER3 β-hairpin
T1 chain: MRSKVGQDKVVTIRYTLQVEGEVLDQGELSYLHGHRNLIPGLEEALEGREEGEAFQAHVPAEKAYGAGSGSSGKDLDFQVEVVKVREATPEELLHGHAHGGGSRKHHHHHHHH

T2: TtSlyDcas-Her3
T2 chain: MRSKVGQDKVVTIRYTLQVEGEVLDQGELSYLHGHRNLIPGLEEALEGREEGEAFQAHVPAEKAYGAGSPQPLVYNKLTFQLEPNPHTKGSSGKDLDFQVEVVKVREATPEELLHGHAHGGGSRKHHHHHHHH

T3: TgSlyDser-Her3
T3 chain: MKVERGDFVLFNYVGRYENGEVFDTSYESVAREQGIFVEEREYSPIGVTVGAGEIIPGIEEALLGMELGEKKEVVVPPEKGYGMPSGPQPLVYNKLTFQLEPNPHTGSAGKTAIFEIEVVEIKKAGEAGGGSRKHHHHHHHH

T4: TgSlyDcys-Her3
T4 chain: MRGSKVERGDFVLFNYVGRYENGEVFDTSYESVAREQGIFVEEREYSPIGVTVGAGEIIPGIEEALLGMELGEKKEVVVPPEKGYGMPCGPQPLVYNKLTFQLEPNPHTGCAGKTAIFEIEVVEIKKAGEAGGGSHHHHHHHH


Legend:
[1] = target: T5, human recombinant HER3 Extracellular Domain (HER3 ECD) (human, UniProt P21860 20-643); assay: SPR Biacore T200, antibody captured, 25 C
T5 construct: 68 kDa; also called human-Her3-ECD
Protocol: (§1) A Biacore T200 instrument (GE Healthcare) was mounted with a CM5 series sensor. The sensor was normalized in HBS-ET buffer (10 mM HEPES pH 7.4, 150 mM NaCl, 3 mM EDTA, 0.05% w/v Tween 20) according to the manufacturer's instructions. The sample buffer was the system buffer supplemented with 1 mg/ml CMD (Carboxymethyldextran, Sigma #86524). The system operated at 25° C. 6500 RU RAM-Fcγ (relative units of Fcγ-fragment RamlgG, GE Healthcare) were immobilized according to the manufacturer's instructions using amine coupling EDC/NHS chemistry on all four flow cells. The sensor was deactivated using 1M ethanolamine. […] Concentration dependent kinetics were measured. […] All analytes were injected for 5 min association time and 10 min dissociation time at 100 μl/min flow rate. The sensor capture system was regenerated by a 3 min injection at 10 μl/min of 10 mM glycine pH 1.7. Where possible kinetic data was evaluated using the Biacore T200 evaluation software.

[2] = target: T6, HER3 ECD-HRG complex (Heregulin-activated Her-3 ECD) (human, UniProt P21860 20-643); assay: SPR Biacore T200, antibody captured, 25 C
T6 construct: receptor-ligand complex made by preincubating HER3 ECD with a five-fold molar excess of Heregulin; also called Heregulin/Her-3 ECD; Heregulin-complexed Her-3 ECD
Protocol: as §1

TtSlyDcas [3] = target: T1, TtSlyDcas; assay: SPR Biacore T200, antibody captured, 25 C
Protocol: as §1

[4] = target: T5, human recombinant HER3 Extracellular …; assay: ELISA, antigen coated, hybridoma supernatant
Protocol: (§2) For the ELISA screening an antigen down format was used. […] Hybridoma Supernatant was added to the plates and incubated for 1 h at room temperature. Bound antibody was detected with a HRP-labeled F(ab′)₂ goat anti-mouse Fcγ (Dianova) and ABTS (Roche) was used as a HRP-substrate.
(§3) As negative controls the scaffold proteins TtSlyDcas and TgSlyDΔIF were used.

[5] = target: T7, human HER1 Extracellular Domain (HER1 ECD) (human, UniProt P00533 25-645); assay: ELISA, antigen coated, hybridoma supernatant
T7 construct: also called EGFR ECD
Protocol: as §2, §3

[6] = target: human HER2 Extracellular Domain (HER2 ECD) (human, UniProt P04626 23-652); assay: ELISA, antigen coated, hybridoma supernatant
Protocol: as §2, §3

TtSlyDcas [7] = target: T1, TtSlyDcas; assay: ELISA, antigen coated, hybridoma supernatant
Protocol: as §2, §3

TtSlyDcas-Her3 = target: T2, TtSlyDcas-Her3; assay: ELISA, antigen coated, hybridoma supernatant
Protocol: as §2, §3

[8] = target: T6, HER3 ECD-HRG complex …; assay: SPR, Interaction Map (TraceDrawer), two-state-kinetic no. 2, 25 C
[9] = target: HER2, full length, on cells (transfected HEK293, MCF7) (human, UniProt P04626 23-1255); assay: IHC on HEK293 cells transiently transfected with full length HER2; NC = untransfected cells
Protocol: All selected clones were tested for reactivity and specificity in IHC. […] After an additional fixation in formalin overnight the Agarose blocks were embedded in paraffin. Untransfected HEK293 cells were used as negative controls and treated accordingly to the transfected cells. After paraffin embedding 3 μm thin sections were prepared using a microtome. The sections were mounted on glass microscopy slides and dried for 2 h. All further steps of the immunohistochemical staining procedure were carried out using a Ventana Benchmark XT. The slides were dewaxed and antigen retrieval was performed by applying heat for 1 hour. For antigen retrieval the Ventana buffer CC1 was used. The antibodies were used at a concentration of 1 μg/ml. For the detection of bound antibody the Ventana UltraView detection kit was used.

SBP-tagged HER3-ECD = target: T8, SBP-tagged HER3-ECD (human, UniProt P21860 20-643); assay: time-resolved fluorescence, 10 nM Eu-labelled Heregulin-beta on plate-bound SBP-tagged HER3-ECD, antibody titrated
T8 construct: not shown: SBP tag
Protocol: On the next day the wells were washed three times with washing buffer (PBS+0.05% Tween-20) and blocked with PBS containing 1% BSA for one hour. After another three washes with washing buffer, 40 μl antibody solution (in Delfia Binding Buffer) was added to each well as a 2× stock of the desired final concentrations (10⁻³ to 10³ nM, alternatively 10⁻⁴ to 10² nM). Immediately […] of 20 nM Europium-labeled Heregulin-beta (PeproTech, Cat. #100-03) was added to achieve a final concentration of 10 nM. The plates were incubated on a shaker at room temperature for two hours. Following three washes with Delfia Wash Buffer, Delfia Enhancement Solution was added and incubated on a shaker for 15 minutes (light protected). Finally, the plates were measured in a Tecan Infinite F200 reader using a time-resolved fluorescence measurement protocol.

TgSlyDser-Her3 = target: T3, TgSlyDser-Her3; assay: ELISA, antigen coated, hybridoma supernatant
Protocol: as §2, §3

TgSlyDcys-Her3 = target: T4, TgSlyDcys-Her3; assay: ELISA, antigen coated, hybridoma supernatant
Protocol: as §2, §3

Row | Binder | Kd [1] [nM] | MR (Molar Ratio) [1] | koff [1] [s⁻¹] | kon [1] [M⁻¹ s⁻¹] | MR (Molar Ratio) [2] | MR (Molar Ratio) (TtSlyDcas [3]) | binding result (TtSlyDcas [3]) | OD 405 nm [4] [OD] | OD 405 nm [5] [OD] | binding result [5] | OD 405 nm [6] [OD] | binding result [6] | OD 405 nm (TtSlyDcas [7]) [OD] | OD 405 nm (TtSlyDcas-Her3) [OD] | Kd [8] [nM] | Weight (contribution to the overall interaction) [8] [%] | koff [8] [s⁻¹] | kon [8] [M⁻¹ s⁻¹] | binding result [9] | signal of HRG binding to HER3-ECD at the plateau (SBP-tagged HER3-ECD) [%] | other results
1 | anti-HER3 antibody M-17-02 (antibody, V domains shown, mouse hybridoma clone) VH: EVQLQQSGTVLARPGASVKMSCKASGYSFTSYWIHWVKQRPGQGLEWIGAIYPGNSDTTYNQKFKGKAKLTAVTSASTAYMELSSLTNEDSAVYYCARTGVWTSYYFDYWGQGTTLTVSS VL: DIQMTQSPASLSASVGETVTITCRASENIYSNLAWYQQKQGKSPQLLVYAATNLADGVPSRFSGSGSGTQFSLRINSLQPEDFGSYYCQHFYGTPFTFGTGTKLEIK |  |  |  |  |  |  |  | 2.96 | 0.028 | no binding | 0.03 | no binding | 0.023 | 1.53 |  |  |  |  | no binding |  | OD 405 nm (TgSlyDser-Her3): 1.57 OD; OD 405 nm (TgSlyDcys-Her3): 1.53 OD
2 | anti-HER3 antibody M-43-01 (antibody, V domains shown, mouse hybridoma clone) VH: EVQLQQSGTVLARPGASVKMSCKASDYTFSNYWVHWVKQRPGQGLEWIGAIYPGNGDSTYYQKFKGKATLTAVTSTSTAYMDLSSLTNGDSAVYFCTRSGVGYNYYFDYWGQGTTLTVSS VL: DIQMTQSPASLSASVGETVTITCRASENIYSNLAWYQQKQGKSPQLLVYIATNLADGVPSRFSGSGSGTQFSLKINSLQPEDLGSYYCQHFYGTPFTFGTGTKLEIE | 5.2 | 0.1 | 0.00055 | 110000 | 0.3 | 0 | no binding (tested: 90 nM) | 1.44 | 0.043 | no binding | 0.045 | no binding | 0.018 | 3.27 | 62 | 13 | 0.000988 | 15900 | no binding | 200 | OD 405 nm (TgSlyDser-Her3): 3.44 OD; OD 405 nm (TgSlyDcys-Her3): 3.15 OD

Continued, in another order:

Row | Kd [1] [nM] | MR (Molar Ratio) [1] | koff [1] [s⁻¹] | kon [1] [M⁻¹ s⁻¹] | MR (Molar Ratio) [2] | MR (Molar Ratio) (TtSlyDcas [3]) | binding result (TtSlyDcas [3]) | OD 405 nm [4] [OD] | OD 405 nm [5] [OD] | binding result [5] | OD 405 nm [6] [OD] | binding result [6] | OD 405 nm (TtSlyDcas [7]) [OD] | OD 405 nm (TtSlyDcas-Her3) [OD] | Kd [8] [nM] | Weight (contribution to the overall interaction) [8] [%] | koff [8] [s⁻¹] | kon [8] [M⁻¹ s⁻¹] | binding result [9] | signal of HRG binding to HER3-ECD at the plateau (SBP-tagged HER3-ECD) [%] | Binder | other results
3 | 3.8 | 0.2 | 0.0004 | 100000 | 0.9 | 0 | no binding (tested: 90 nM) | 1.35 | 0.043 | no binding | 0.04 | no binding | 0.038 | 2.56 | 15.7 | 7 | 0.000774 | 49400 | no binding | 330 | anti-HER3 antibody M-46-01 (antibody, V domains shown, mouse hybridoma clone) VH: QIQLQQSGPQLVRPGASVKISCKASGYSFTSYWMHWVKQRPGRGLEWIGMIDPSDGVTRLNQKFKDKATLTVDNSSSTAYMQLSSPTSEDSAVHYCARVDVLYWYFDVWGAGTTVTVSS VL: DIVLTQSPASLAVSLGQRATISCRASKSISISGYSYMHWYQQKAGQPPKLLIYLTSNLESGVPARFSGSGSGTDFTLNIHPVEEEDAATYYCHHSRELPFTFGSGTKLEIK | 
4 | 3.5 | 0.1 | 0.00037 | 110000 | 0.7 | 0 | no binding (tested: 90 nM) | 3.15 | 0.06 | no binding | 0.025 | no binding | 0.038 | 3.2 | 23 | 6 | 0.000449 | 19500 | no binding | 200 | anti-HER3 antibody M-08-11 (antibody, V domains shown, mouse monoclonal antibody from hybridoma, tested as hybridoma supernatant or as antibody; also called M-011) VH: QAYLQQSGAELMRPGASVRMSCQASGYTFTSYTIHWLKQTPRQGLEWIGAIYPRNGDFSYNQKFKDKASLTVDTSSSTAYMHLSSLTSEDSAVYFCARTINYGDWFAYWGQGTLVTVSA VL: DIQMIQSPASLFVSEGETVIITCRASENIYSNLAWYHQKKGKSPQVLVYAAIKLADGVPLRFSGSGSGTQFSLKINSLQSEDFGSYYCQHFWGPPYTFGSGTNLEIK | OD 405 nm (TgSlyDser-Her3): 3.11 OD; OD 405 nm (TgSlyDcys-Her3): 3.26 OD
